US20220341931A1

How the values were obtained:
[1] = molecular target: SARS-CoV-2 (2019-nCoV) Spike S1-His Recombinant Protein (Sino Biological Cat: 40591-VO8H), as barcode-linked antigen (SARS-CoV-2 (2019-nCoV)) (UniProt P0DTC2)
[2] = molecular target: Varicella-Zoster Virus Heterodimer gE/gI (HEK293), His-tag (Native Antigen Company #REC31907-100), a (Varicella-Zoster Virus) (UniProt P09259)
[3] = molecular target: Human cytomegalovirus (HCMV) Glycoprotein B/gB Protein (His Tag) (Sino Biological 10202-V08H1), as b (Human cytomegalovirus (HCMV))
[4] = molecular target: Human Metapneumovirus (hMPV) B Glycoprotein G, His-Tag (HEK293) (Native Antigen Company #REC31948-10 (Human Metapneumovirus (hMPV) B))
[5] = molecular target: Influenza B [B/Washington/02/2019 (B/Victoria lineage)-like virus] Hemagglutinin (HA), His-Tag (Nati (Influenza B [B/Washington/02/2019 (B/Victoria lineage)-like virus]))
[6] = molecular target: SARS-CoV-2 (2019-nCoV) Spike S1-His Recombinant Protein (Sino Biological Cat: 40591-VO8H), as barcode-linked antigen (SARS-CoV-2 (2019-nCoV)) (UniProt P0DTC2); remark: listed apart in the source
[7] = molecular target: Epstein-Barr virus (Herpesvirus 4) EBV Glycoprotein gp350/EBV GP350 Protein (His Tag) (Sino Biologic (Epstein-Barr virus (Herpesvirus 4)) (UniProt P03200))
UniProt P03200, sequence (P03200 1-470): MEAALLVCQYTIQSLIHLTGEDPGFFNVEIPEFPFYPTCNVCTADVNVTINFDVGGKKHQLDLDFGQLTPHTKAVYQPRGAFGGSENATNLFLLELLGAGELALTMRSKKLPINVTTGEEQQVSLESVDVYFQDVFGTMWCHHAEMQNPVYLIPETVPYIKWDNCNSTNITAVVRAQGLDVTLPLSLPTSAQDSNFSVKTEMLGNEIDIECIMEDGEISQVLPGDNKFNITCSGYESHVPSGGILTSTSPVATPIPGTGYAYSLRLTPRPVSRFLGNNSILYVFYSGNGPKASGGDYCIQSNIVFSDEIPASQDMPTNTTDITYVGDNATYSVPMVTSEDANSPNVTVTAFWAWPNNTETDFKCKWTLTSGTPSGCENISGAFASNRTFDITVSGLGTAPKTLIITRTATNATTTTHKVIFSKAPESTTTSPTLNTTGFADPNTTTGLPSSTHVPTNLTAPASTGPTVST

UniProt P09259, sequence (P09259 31-538 limits assumed, chain 1 of 2): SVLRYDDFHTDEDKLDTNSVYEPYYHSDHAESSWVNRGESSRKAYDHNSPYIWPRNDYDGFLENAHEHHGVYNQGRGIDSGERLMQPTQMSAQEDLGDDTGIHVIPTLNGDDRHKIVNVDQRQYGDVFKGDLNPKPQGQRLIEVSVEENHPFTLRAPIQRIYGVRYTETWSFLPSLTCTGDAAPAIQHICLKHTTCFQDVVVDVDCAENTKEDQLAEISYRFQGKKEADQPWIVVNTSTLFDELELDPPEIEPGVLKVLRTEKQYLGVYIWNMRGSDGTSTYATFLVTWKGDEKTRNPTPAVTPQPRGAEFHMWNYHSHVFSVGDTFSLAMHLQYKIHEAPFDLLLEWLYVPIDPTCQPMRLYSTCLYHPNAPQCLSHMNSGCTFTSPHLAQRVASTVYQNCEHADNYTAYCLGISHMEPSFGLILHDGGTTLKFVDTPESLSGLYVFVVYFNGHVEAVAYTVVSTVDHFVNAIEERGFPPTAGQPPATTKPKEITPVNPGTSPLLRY
UniProt P09259, sequence (P09258 18-295 limits assumed, chain 2 of 2, further chain): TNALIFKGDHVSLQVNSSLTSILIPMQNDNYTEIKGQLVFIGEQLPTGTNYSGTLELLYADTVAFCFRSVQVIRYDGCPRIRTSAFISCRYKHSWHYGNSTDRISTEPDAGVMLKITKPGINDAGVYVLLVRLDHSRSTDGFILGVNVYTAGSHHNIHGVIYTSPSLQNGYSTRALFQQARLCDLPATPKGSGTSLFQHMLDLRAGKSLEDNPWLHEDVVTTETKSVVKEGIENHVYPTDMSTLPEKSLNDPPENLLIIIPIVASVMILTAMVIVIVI

For “SARS-CoV-2 (2019-nCoV) Nucleocapsid Antibody, Rabbit MAb (Sino Biological Cat: 40143-R019)”, the Spike #/Nuc # [1] was 0.291, the barcode sequence counts (VZV) [2] was 200 counts and the barcode sequence counts (HCMV) [3] was 836 counts. For the same substance, the barcode sequence counts (hMPV) [4] was 201 counts, the barcode sequence counts (FLU B) [5] was 185 counts and the barcode sequence counts (COVID Spike) [6] was 900 counts. For the same substance, the barcode sequence counts (EBV) [7] was 1080 counts.
